Laboratory results taken from patent publication US20060263802A1 (CRUCELL HOLLAND B V, published 2006).

Columns and labels:
Experiment in all cases: PEPSCAN ELISA, looped peptide, 10 ug/ml
[1] = biological target: looped/cyclic peptide … (rabies virus strain ERA)
[2] = biological target: looped/cyclic peptide … (rabies virus strain ERA); remark: listed apart in the source
[3] = biological target: looped/cyclic peptide … (rabies virus strain ERA); remark: listed apart in the source
[4] = biological target: looped/cyclic peptide … (rabies virus strain ERA); remark: listed apart in the source
[5] = biological target: looped/cyclic peptide … (rabies virus strain ERA); remark: listed apart in the source
[6] = biological target: looped/cyclic peptide … (rabies virus strain ERA); remark: listed apart in the source
[7] = biological target: looped/cyclic peptide … (rabies virus strain ERA); remark: listed apart in the source
[8] = biological target: looped/cyclic peptide … (rabies virus strain ERA); remark: listed apart in the source
[9] = biological target: looped/cyclic peptide … (rabies virus strain ERA); remark: listed apart in the source
[10] = biological target: looped/cyclic peptide … (rabies virus strain ERA); remark: listed apart in the source
[11] = biological target: looped/cyclic peptide … (rabies virus strain ERA); remark: listed apart in the source
[12] = biological target: looped/cyclic peptide … (rabies virus strain ERA); remark: listed apart in the source
[13] = biological target: looped/cyclic peptide … (rabies virus strain ERA); remark: listed apart in the source
[14] = biological target: looped/cyclic peptide … (rabies virus strain ERA); remark: listed apart in the source
[15] = biological target: looped/cyclic peptide … (rabies virus strain ERA); remark: listed apart in the source
[16] = biological target: looped/cyclic peptide … (rabies virus strain ERA); remark: listed apart in the source
[17] = biological target: looped/cyclic peptide … (rabies virus strain ERA); remark: listed apart in the source
[18] = biological target: looped/cyclic peptide … (rabies virus strain ERA); remark: listed apart in the source
[19] = biological target: looped/cyclic peptide … (rabies virus strain ERA); remark: listed apart in the source
[20] = biological target: looped/cyclic peptide … (rabies virus strain ERA); remark: listed apart in the source
[21] = biological target: looped/cyclic peptide … (rabies virus strain ERA); remark: listed apart in the source
[22] = biological target: looped/cyclic peptide … (rabies virus strain ERA); remark: listed apart in the source
[23] = biological target: looped/cyclic peptide … (rabies virus strain ERA); remark: listed apart in the source
[24] = biological target: looped/cyclic peptide … (rabies virus strain ERA); remark: listed apart in the source
[25] = biological target: looped/cyclic peptide … (rabies virus strain ERA); remark: listed apart in the source
[26] = biological target: looped/cyclic peptide … (rabies virus strain ERA); remark: listed apart in the source
[27] = biological target: looped/cyclic peptide … (rabies virus strain ERA); remark: listed apart in the source
[28] = biological target: looped/cyclic peptide … (rabies virus strain ERA); remark: listed apart in the source
[29] = biological target: looped/cyclic peptide … (rabies virus strain ERA); remark: listed apart in the source
[30] = biological target: looped/cyclic peptide … (rabies virus strain ERA); remark: listed apart in the source
[31] = biological target: looped/cyclic peptide … (rabies virus strain ERA); remark: listed apart in the source
[32] = biological target: looped/cyclic peptide … (rabies virus strain ERA); remark: listed apart in the source
[33] = biological target: looped/cyclic peptide … (rabies virus strain ERA); remark: listed apart in the source
[34] = biological target: looped/cyclic peptide … (rabies virus strain ERA); remark: listed apart in the source
[35] = biological target: looped/cyclic peptide … (rabies virus strain ERA); remark: listed apart in the source
[36] = biological target: looped/cyclic peptide … (rabies virus strain ERA); remark: listed apart in the source
[37] = biological target: looped/cyclic peptide … (rabies virus strain ERA); remark: listed apart in the source
[38] = biological target: looped/cyclic peptide … (rabies virus strain ERA); remark: listed apart in the source
[39] = biological target: looped/cyclic peptide … (rabies virus strain ERA); remark: listed apart in the source
[40] = biological target: looped/cyclic peptide … (rabies virus strain ERA); remark: listed apart in the source
[41] = biological target: looped/cyclic peptide … (rabies virus strain ERA); remark: listed apart in the source
[42] = biological target: looped/cyclic peptide … (rabies virus strain ERA); remark: listed apart in the source
[43] = biological target: looped/cyclic peptide … (rabies virus strain ERA); remark: listed apart in the source
[44] = biological target: looped/cyclic peptide … (rabies virus strain ERA); remark: listed apart in the source
[45] = biological target: looped/cyclic peptide … (rabies virus strain ERA); remark: listed apart in the source
[46] = biological target: looped/cyclic peptide … (rabies virus strain ERA); remark: listed apart in the source

B1: human monoclonal antibody CRJA (antibody, V domains shown)
VH: EVQLLESGGGLVQPGGSLRLSCAASGFTFSNYAMSWVRQAPGKGLEWVSAISASGHSTYLADSVKGRFTISRDNSKNTLYLQMNSLRAEDTAVYYCAKDREVTMIVVLNGGFDYWGQGTRVTVSS
VL: EIVLTQSPATLSLSPGERATLACRASQTASRYLAWYQQKPGQAPRLLIYDTSNRATGIPARFSGSGSGTDFTLSISSLEPEDFAVYYCQQRFNWPWTFGQGTKVEFK
OD [1]: 87 OD | OD [2]: 165 OD | OD [3]: 43 OD | OD [4]: 94 OD | OD [5]: 110 OD | OD [6]: 115 OD | OD [7]: 114 OD | OD [8]: 105 OD | OD [9]: 92 OD | OD [10]: 42 OD | OD [11]: 78 OD | OD [12]: 54 OD | OD [13]: 71 OD | OD [14]: 71 OD | OD [15]: 46 OD | OD [16]: 105 OD | OD [17]: 114 OD | OD [18]: 78 OD | OD [19]: 115 OD | OD [20]: 132 OD | OD [21]: 84 OD | OD [22]: 88 OD | OD [23]: 92 OD | OD [24]: 90 OD | OD [25]: 58 OD | OD [26]: 79 OD | OD [27]: 98 OD | OD [28]: 113 OD | OD [29]: 110 OD | OD [30]: 73 OD | OD [31]: 112 OD | OD [32]: 55 OD | OD [33]: 103 OD | OD [34]: 104 OD | OD [35]: 104 OD | OD [36]: 103 OD | OD [37]: 94 OD | OD [38]: 110 OD | OD [39]: 68 OD | OD [40]: 104 OD | OD [41]: 82 OD | OD [42]: 86 OD | OD [43]: 96 OD | OD [44]: 100 OD | OD [45]: 117 OD | OD [46]: 112 OD
